Test results reported in patent US20250074942A1, “COMPOSITIONS AND METHODS FOR COVALENT PEPTIDE-BASED MODULATORS OF HLA-E” (Calico Life Sciences LLC, priority 2022, published 2025).

biological target: HLA-E/B2M complex, refolded and biotinylated ([HLAE(hu)(22-305)]-Avitag + [B2M(h)(21-119)]) (human), P13747; experiment: cross-linking, 10-fold excess over [HLA-E+VL9], 4 h 37 C, LC-MS

| Binder | % cross-linking with HLA-E |
| --- | --- |
| VMACRTLFL (modifications not checked) [VL9-4 Cys(mSF)] | 36% |
| VMCPRTLFL (modifications not checked) [VL9-3 Cys(mSF)] | 73% |

The next lines start with the values.

| % cross-linking with HLA-E | Binder |
| --- | --- |
| 87% | VMAPRTLCL (modifications not checked) [VL9-8 Cys(mSF)] |
| 22% | VMAPRTCFL (modifications not checked) [VL9-7 Cys(mSF)] |
